Assay: soluble on expression in E. coli; label from the status in PepcDB or PDB records

Row | Sequence | soluble on expression in E. coli
1 | MGHHHHHHSHMAKLLSDLSVDSARCKPGNNLTKSLLNIHDKQLQHDPAPAHTSIMSYLNKLETNYSFTHSEPLSTIKNEETIEPDKTYENVLSSRGPQNSNTRGMEEASAPGIISALSKQDSDEGSETMALIEDEHNLDNTIYIPFARSTPEKKSPLSKRLSPQPQIRAATTQLVSNSGLAVSGEENKLCTPVICSSSTKEAEDAPEKLSRASDMKDTQLLKKIKEAIGKIPAATKEPEEQTACHGPSGCLSNSLQVKGNTVCDGSVFTSDLMSDWSISSFSTFTSRDEQDFRNGLAALDANIARLQKSLRTGLLEK | not soluble
2 | MGSDKIHHHHHHMPLSPQQDILEIDQDASVLRFAPQAGGRLMSWTIDGEAVIHWPEHADWSQPARIRGGNPLLFPFLGRHRVDGKIGYWRDAKGTVRELPMHGFARDLPFEAHADVHGAGLRMILTDSTATRHGYPFGFRLETAYCLADARTLDVTFTTTNTGDSRLPSRLPYYAGHHFYFTLPHTQRAATSLELPRTERRHQQDDGSISAAEPGEARYTLDEARIQDRFHCLAGAPDRPVRLVAPGLDRIVTIDLQRPDSIPWYAVTTWTEAAESDFYCVEPWLGLPDAIHNGMGLRWLEPGQTEVAALRISVDKLG | not soluble
3 | MKIIAFYLPQFHQIKENDRWWGKGFTEWTNTKSAQPLFSGHYQPREPYQDFYYDLTTPSVRKWQAEIAKAYGIYGFCYYHYWFKGKRLLETPFNEVLKMKEPDFPFCLSWANEPWTKSWDGLDKHILMPQDYGDISDWKEHFDYLLQAFQDERYIYIDDKPLFIIYRPGHIPDCEKMLNYWNALARANGLKGIYFAETLNSFPLPNINGFDASIQFEPFYTIAHDSSSDINKVIYDSDMQLNVWDYDKVWMYILQRSLPKKKTFPGAFVDWDNTARRKNANSSIFVGSTPEKFTIYLSKQIHRTYSFYNSEFLFINAWNEWAEGTYLEPDKKYGFSYLEGVKNAIDRGMKAYKKDESFLEHHHHHH | not soluble
4 | MGSDKIHHHHHHMLHFKHSSVINATPEVVWKFHERPDILQLLNPPWQPVQVVRREGGLNVGAITEFRLFLGPLPLTWLARHTECDKYRLFTDEQISGPFESWVHRHEFEPEAGKTRLTDAISFSMPGGETVEFVSGWLVQVQLEAMFRYRHYVTKRECESQ | not soluble
5 | MSLKSHVRSFKTYIRDEIIKKGGWVNAHAHADRAFTMTPEKIGIYHSSNLQQKWDLVDEVKRTSSVDDYYARFCQSIELMISQGVTAFGTFVDIDPICEDRAIIAAHKAREVYKHDIILKFANQTLKGVIEPTARKWFDIGAEMVDMIGGLPYRDELDYGRGLEAMDILLDKAKSLGIMCHVHVDQFNNPSEKETEQLCDKTIEHGMEGRVVGIHGISIGSHSKEYRYKLYEKMRKAKMMMIACPMAWIDSNRKEDLMPFHNALTPADEMIPEGITVALGTDNICDYMVPLCEGDLWQELSLLAAGCRFPHLDEMVNIASINGRKVLGLELIEGHHHHHH | soluble
6 | MGSDKIHHHHHHMDKYTALIHDENFSTLTLNVSRYPKSLAYWEKLLNYIVKASAPICKSTEPQLLKLIRCTYSSMLNEFPYLENYYIDFALLEYKLGNVSMSHKIFQRGLQAFNQRSLLLWTSYLKFCNNVISHQKQLFKKYETAEEYVGLHFFSGEFWDLYLEQISSRCTSSKKYWNVLRKILEIPLHSFSKFYALWLQRIDDIMDLKQLSQLTSKDELLKKLKIDINYSGRKGPYLQDAKKKLKKITKEMYMVVQYQVLEIYSIFESKIYINYYTSPETLVSSDEIETWIKYLDYTITLQTDSLTHLNFQRALLPLAHYDLVWIKYSKWLINSKNDLLGAKNVLLMGLKFSLKKTEIIKLLYSVICKLNEYVLLRNLLEKIESSYSDNVENVDDFEIFWDYLQFKTFCQNSLYSSRYSDSQSNGLLNKELFDKVWKRLSCKEKKSGQEILLNNLVQFYSKDTVEFVEKNIFQKIIEFGWEYYLQNGMFWNCYCRLIYFDTSRSYLDKRQYIVRKIWPQIDKKFAQSVLPSLTEFCESYFPEEMDTLEEMFTEEP | not soluble
7 | MGDSTFLDRMLLQLRSTCKYYSGYPKDLGPSRVLHFTSEREFVQLLHQGYPVVVAFTIRSNYTQHLDRMLEEAAAEFYPNIKFMRVECPKYPGFCITRQKNEYPFIEIFHSPQHAGNEGKVQDPNITRYSVKVVPYNYDMSPYGFREFFKRQGVRTSDPK | not soluble
8 | MSLDLKQVLRATMVKGVLQRGTIALGNDPGVLRIYTRAACPGTLAKNYLGEWCFASKVAEEASPRVHVVGDIHGNIEALFKVLIRTKLFILDEPMSNESYEGYEDPEEPFSVKGWGVHPRYAVEGTQKYIVKDYDHIYLFLGDYVDRGSFSIECLVVLLGLKILFPNAVYLLRGNHETRACLQRGQLFQELIHKYEYVEASKITDRLLRLFDALPTCALINDYVFAVHAGIYSKNASLADIEKYCTKRAPCSKFHTKAPYFDPLHNMLWADFVEDQPAIDLSQDNRRRNTGIVFYPSTVKEFLKNEGLGLFIRGHQSTPFGVSISQTGKLVTVSINSDSTPTWLGAVLTLVHPADADASESISPVNLASEGHHHHHH | not soluble
9 | MSTIKIVPLGGVRENGKNMYVAEVEDEIFVLDCGLQYPENELLGIDVVIPDFTYLEENSERIAGVFLTHGHADAIGALPYLLSKIQVPVFGTELTIELAKLSVNSHAETKKFKDFHVIDPHTEIDFGQATVSFFKTTHTIPDSIGVSIKTKEGNIVYTGDFKFDQSAIEMYQTDYGRLAEIGKEGVLALLSDSSNAENPAQVASEAQIADEVFDTIRYWEGRIIVACVASNLQRVQQVLNAADRSGRKVVLTGQDFERIIRTAMKLEKLQLPSEDLLVKPKEMKKYAPEQLLILETGRMGEPIKSLQKMANNTHGVVRIEEGDLVYITTTPTTAMETTVAKTEDIVYRAGATVKQISDNLRVSGHANPNDLQLMLNLMKPKYFIPVQGEYRQLAAHADLAHEIGMPYKDIFITGRGDILEYTKGRMSVAGSTTAENIMIDGIGVGDIGNIVLRDRRILSEDGIFVAVVTINRREKRIVSPAKITSRGFVYVKTSKDLMKESSNIVTEIVEKHLESDDFEWSKLKQEIRENLSRYLFEQTKRRPVILPVIMEATQRKRPKNNA | not soluble
10 | QLIFDDCVFAFSGPVHEDAYDRSALETVVQDHGGLVLDTGLRPLFNDPFKSKQKKLRHLKPQKRSKSWNQAFVVSDTFSRKVKYLEALAFNIPCVHPQFIKQCLKMNRVVDFSPYLLASGYSHRLDCTLSQRIEPFDTTDSLYDRLLARKGPLFGKKILFIIPEAKSWQKKIENTEQGQKALAHVYHALALGADVEIRPNVAHLECDLILTMDGNIVDETNCPVVDPEWIVECLISQSDIST | soluble
11 | MNGKVIIVTGGSSGMGKYMAKRFVSDGANVVITGRRAEALEEAKREIAAPDGGKVLTIPMDVRNPEQVAHMVERTDAEFGRIDALINNAAGNFICPAEKLSINGWNSVINIVLNGTFYCSREVGNYWIQRGLKGNIINIVATYAWHAGAGVIHSASAKAGVLAMTRTLAVEWGKKYGFRVNAIAPGPIERTGGAERLWESEEAERMTLESVPLGRLGTPEEIAAVASFLLSDEAAYINGACITVDGGQWLNRRPF | soluble
12 | GMNVNFINPFLQSLLNVISTMASLELTPGKPQIKTDNLAKGDVSGLIGMVGPQTKGSLSITFEQKLVLQIMQNMLGENPGKINEEVTDLVGEITNMVTGGAKNLLGQKGYEFEMATPMVVSGQGHTISHKANGTKIIMPFTSSYGTAFIEVCFES | soluble
13 | MSLIRPQLDDIQTAQAQEKNLLNEFREKQSKLRNLQQYQHQLEEMRASFNQQLTQLPKESEIPGLVEDINMTGVNSGLKFKNIRLENEVKQEFFIEQPISIEATGDYHAFGAFVSGIAALPRIVTLHDFVIEAKQSKEKTDIPEVDYAVKAKTYRYIGVDEQGNASAVQANTSTTTPAQGGTPEGHHHHHH | soluble
14 | MSDSASNTENSIQIEIFPSRILSPETAQKLLVELSQVDGILRVMIQGNRLPEKVGYGPGTGEKVEHPLRKPIQIGGQVIELRVSVGRIRLEVLNAEVKENVRAVCEKMLPFSFEFREGHFLRRKPTVTDYAKLGPEADPRLLGMVDPKAKINQLVFIEKQEKEDDEDKDELEHHHHHH | soluble
15 | MGSDKIHHHHHHMKPYIVAHMMSSLDGRSLTDGWHLDYASDLYETTAATFEADGWICGRVTMQEISHGKDYPAGLASGAVPRTDHFVERNADQYAISIDPQGRVAWKSNTALKSHVIEVLTEQVADDYLAYLQSIGVSYVFGGKTGIDLDKVVQTLARELGVKKLIVEGGSHVSGAFVNAGLVDEVSVLILPLVDGRSEHPSSFEVAMEKWQAPAYLKLTSVEKTDHDAVWLRYTKA | not soluble

Reference: the DeepSol protein solubility set
